The source of these data is patent US20100143245A1.

This test addresses 4Ig-B7H3, the 4Ig domain isoform of the human B7-homolog 3 (human) (UniProt Q5ZPR3). The test is described as follows: Immunoaffinity capture from LAN-1 lysate or membrane fraction on 8H9-protein G Sepharose, followed by Western blot.
UniProt Q5ZPR3, sequence (Q5ZPR3 29-534 limits assumed, form in doubt): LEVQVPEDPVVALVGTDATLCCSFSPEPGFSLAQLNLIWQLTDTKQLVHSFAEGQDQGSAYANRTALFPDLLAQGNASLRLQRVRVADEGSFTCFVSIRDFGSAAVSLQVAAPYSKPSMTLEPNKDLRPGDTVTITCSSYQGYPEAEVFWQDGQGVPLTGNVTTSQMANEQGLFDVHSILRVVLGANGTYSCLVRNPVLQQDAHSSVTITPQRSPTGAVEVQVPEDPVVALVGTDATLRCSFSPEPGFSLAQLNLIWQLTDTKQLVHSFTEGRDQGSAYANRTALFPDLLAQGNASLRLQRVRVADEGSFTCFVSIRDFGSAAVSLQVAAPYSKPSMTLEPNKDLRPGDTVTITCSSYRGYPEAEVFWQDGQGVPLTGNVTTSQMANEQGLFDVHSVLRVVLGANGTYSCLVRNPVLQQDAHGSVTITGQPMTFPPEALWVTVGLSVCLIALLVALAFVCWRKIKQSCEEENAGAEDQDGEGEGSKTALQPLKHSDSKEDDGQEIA

monoclonal antibody 8H9 registered a portion of 8H9 antigen bound to the Sepharose of more than 50%.
